This experiment has as its target T1, GAL4 DNA binding domain-NAC1 fusion, first 199 amino acids of NAC1 (plasmid pGBNAC1 1-199) (Arabidopsis thaliana).
T1 construct: Yeast two-hybrid bait used as the fixed partner for testing the deletions; also called pGBNACl1-199; 199 amino acid version
Kind of experiment: yeast two-hybrid in HF7c, HIS3 reporter. From the text: Two-hybrid analysis (Bartel et al., 1993; Fields and Song, 1989; Chevray and Nathans, 1992; Lee et al., 1995) was applied to dimerization analysis. The yeast strain HF7c (MATa ura3–52 his3–200 ade2–101 lys2–801 trp1–901 leu2–3,112 gal4–542 gal 80–538 LYS2::GAL1$UAS$-GAL1$TATA$-HIS3 URA3::GAL4_{17mers(x3)}-CyC1$TATA$-LacZ which contains the two reporter genes LacZ and HIS3 was used. Yeast cotransformation with plasmids carrying the different Gal4 DNA binding domain and the Gal4 activation domain fusion was performed by methods known to those of skill in the art. See, e.g., Burke and Olson, 1986; Rudolph et al., 1985; Sakai et al., 1984. Other conditions have been described in detail elsewhere and are well known to those of skill in the art. To corroborate the interaction between the two fusion proteins, â-galactosidase activity was assayed by a replica filter assay.

We go through two molecules from patent US6844486 (TEMASEK LIFE SCIENCES LABORATORY, dated 2005).

B1: GAL4 activation domain-NAC1 fusion, NAC1 amino acids 143 to the C-terminus (plasmid pGANAC1 143-324) (other, not shown: large carriers; small tags and cut ends)
chain: FRLQGSHHPPNHSLSSPKEDWVLCRVFHKNTEGVICRDNMGSCFDETASASLPPLMDPYINFDQEPSSYLSDDHHYIINEHVPCFSNLSQNQTLNSNLTNSVSELKIPCKNPNPLFTGGSASATLTGLDSFCSSDQMVLRALLSQLTKIDGSLGPKESQSYGEGSSESLLTDIGIPSTVWNC
notes: Yeast two-hybrid prey
In the case of B1, the binding result was “no binding”.

B2: GAL4 activation domain-NAC1 fusion, first 142 amino acids of NAC1 (plasmid pGANAC1 1-142) (other, not shown: large carriers)
chain: METEEEMKESSISMVEAKLPPGFRFHPKDDELVCDYLMRRSLHNNHRPPLVLIQVDLNKCEPWDIPKMACVGGKDWYFYSQRDRKYATGLRTNRATATGYWKATGKDRTILRKGKLVGMRKTLVFYQGRAPRGRKTDWVMHE
notes: Yeast two-hybrid prey
For the molecule B2, the binding result is “no binding”.
